Publication PMC2671563 (PLoS Biology, 2009)

Columns and labels:
human S100A9 = target: T1, human S100A9 (Homo sapiens, UniProt P06702); assay: SPR: human S100A9 binding to immobilised ABR-224649 (Q compound), direct binding and displacement; conditions: injected together with S100A9
T1 construct: made in house; host or cells: Escherichia coli (or purified from granulocytes)
T1 sequence (P06702 1-114): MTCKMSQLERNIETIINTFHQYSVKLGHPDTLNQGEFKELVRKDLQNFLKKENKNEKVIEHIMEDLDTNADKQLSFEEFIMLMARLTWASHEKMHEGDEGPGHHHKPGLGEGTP
Experimental: (§1) The SPR analysis was carried out with the Biacore 3000 system (GE Healthcare). Sensor chips, amine coupling kit, immobilization and running buffers, and regeneration solutions were obtained from GE Healthcare. Working solutions of all reagents used for Biacore analysis were prepared in 0.01 M Hepes, 0.15 M NaCl (pH 7.4) containing 0.005% v/v Surfactant P-20 (HBS-P; GE Healthcare) by buffer exchange on Fast Protein Desalting Micro-Spin Columns from Pierce. ABR-215757 was immobilised onto a CM5 chip through an amino-linker (ABR-224649). […] Activity of ligands after immobilisation was tested by injecting specific antibodies (unpublished data). In some experiments, S100A9 was immobilized either by random amine coupling or with a known orientation (i.e., by sulhydryl group conjugation to the only cysteine in S100A9 at position 3).
(§2) Binding to the various surfaces was performed by injecting the analyte at a flow rate of 30 μl/min in a physiological buffer (HBS-P) containing 1 mM Ca^2+ and 10 μM Zn^2+ as proposed for S100A8/9 by Robinson et al.. A typical analysis cycle consists of: (1) pumping running buffer for 1 min to obtain a stable baseline; (2) injection of sample for an appropriate period of time (association); (3) pumping running buffer for 2.5 min (dissociation); (4) injection of a short pulse (30 s) of 15 μl 10 mM glycine-HCl (pH 2.0) (regeneration); and (5) pumping running buffer for 2 min (stabilisation after regeneration) at a flow rate of 30 μl/min. […] In one experiment, S100A9 was injected into a buffer with a fixed Ca^2+ concentration (1 mM) and Zn^2+ in the range 0–50 μM. In a second experiment, Ca^2+ was varied from 0–2 mM at a fixed Zn^2+ concentration (10 μM). In subsequent analyses, regeneration was carried out under more mild conditions, i.e., by injecting 30 μl of HBS-P containing 3 mM EDTA (HBS-EP; GE Healthcare) for 60 s, to prolong the lifespan of the chip.
(§3) Compounds were also injected over the immobilised surfaces in the absence of S100A9 to exclude, or make possible correction for, any direct binding of compound to the surface.
(§4) Evaluation was carried out using BIAevaluation Software version 3.2 (GE Healthcare). The response at steady-state was obtained by fit of sensorgrams to standard binding models, where appropriate, or calculated as responses at late association or early dissociation phase using the Steady state affinity function in BIAevaluation. Affinity was determined from kinetic analysis (on- and off-rates) or as the apparent affinity after plotting responses versus concentration of analyte in a saturation curve. In the inhibition assay format, the competitor concentration yielding 50% inhibition (IC50) was calculated by fitting data to a one-site competition model in GraphPad Prism.

hS100A9 = target: T2, hS100A9 (Homo sapiens, UniProt P06702); assay: SPR: analytes injected over immobilised hS100A9; assay type: binding; conditions: 100 nM analyte, 1:1 model with mass transfer; read-out: KD, binding to immobilised hS100A9
T2 construct: made in house; host or cells: Escherichia coli (or purified from granulocytes)
T2 sequence (P06702 1-114): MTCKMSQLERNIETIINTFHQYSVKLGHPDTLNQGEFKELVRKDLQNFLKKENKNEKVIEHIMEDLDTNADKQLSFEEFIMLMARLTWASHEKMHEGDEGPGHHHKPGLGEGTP
Experimental: as §1
(B) Left: 100 nM TLR4/MD2 or MD2 injected over amino-coupled hS100A9. […] Fab 43/8 was injected at 50–200 nM to verify activity of immobilized hS100A9 (right). […] (482 KB PDF) Click here for additional data file.

[1] = target: T3, human S100A9 binding to human TLR4/MD2 (Homo sapiens, UniProt P06702); assay: SPR: inhibition of human S100A9 binding to immobilised human TLR4/MD2; conditions: for inhibition of hS100A9 binding to immobilised hTLR4/MD2: 100 nM hS100A9
T3 construct: purchased R&D Systems (TLR4/MD-2 complex); S100A9 made in house
T3 sequence (P06702 1-114): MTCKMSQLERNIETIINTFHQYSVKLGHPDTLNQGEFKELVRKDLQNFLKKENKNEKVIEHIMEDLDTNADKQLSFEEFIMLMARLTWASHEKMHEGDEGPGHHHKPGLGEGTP
Experimental: as §1, §2, §3, §4

[2] = target: T4, human S100A9 binding to human RAGE (Homo sapiens, UniProt P06702); assay: SPR: inhibition of human S100A9 binding to immobilised human RAGE; conditions: injected together with S100A9
T4 construct: purchased R&D Systems (RAGE/Fc); S100A9 made in house
T4 sequence (P06702 1-114): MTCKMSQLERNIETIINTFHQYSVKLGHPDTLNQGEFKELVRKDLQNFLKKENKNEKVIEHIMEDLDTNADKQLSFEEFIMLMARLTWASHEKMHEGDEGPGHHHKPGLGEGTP
Experimental: as §1, §2, §3, §4

[3] = target: T5, recombinant human RAGE/Fc (human, UniProt Q15109 23-342); assay: SPR; S100 proteins injected (100 nM, or a range of concentrations; 30 ul/min) over human RAGE/Fc immobilised by amine coupling (~3,000 RU); HBS-P pH 7.4 with 1 mM Ca2+ and 10 uM Zn2+; fit to a 1:1 model with mass transfer; half-maximal binding from responses at late association (apparent); conditions: both partners purified
T5 construct: RAGE (receptor for advanced glycation end products), human; human IgG1 Fc was used as the control for the Fc part; also called hRAGE; rhRAGE/Fc; source: bought: R&D Systems (carrier-free recombinant)
T5 sequence (Q15109 23-342): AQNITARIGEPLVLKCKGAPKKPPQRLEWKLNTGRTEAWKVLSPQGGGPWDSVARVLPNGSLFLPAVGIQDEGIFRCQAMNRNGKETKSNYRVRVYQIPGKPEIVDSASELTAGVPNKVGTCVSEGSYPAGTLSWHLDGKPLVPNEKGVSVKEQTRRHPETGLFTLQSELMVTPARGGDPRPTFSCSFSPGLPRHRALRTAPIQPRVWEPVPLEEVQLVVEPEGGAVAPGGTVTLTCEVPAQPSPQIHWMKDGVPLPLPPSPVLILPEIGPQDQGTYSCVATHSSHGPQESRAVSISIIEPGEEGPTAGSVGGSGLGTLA

human TLR4/MD-2 complex [4] = target: T6, human TLR4/MD-2 complex (human, UniProt O00206 24-631; Q9Y6Y9 19-160); assay: SPR; 100 nM TLR4/MD2 or MD2 injected over amine-coupled hS100A9 (~5,000 RU); fit to a 1:1 model with mass transfer; conditions: both partners purified
T6 construct: Toll-like receptor 4, human; MD-2, human; Soluble recombinant complex; also called hTLR4/MD-2; hTLR4/MD2; source: bought: R&D Systems (carrier-free recombinant)
T6 sequence (O00206 24-631, chain 1 of 2): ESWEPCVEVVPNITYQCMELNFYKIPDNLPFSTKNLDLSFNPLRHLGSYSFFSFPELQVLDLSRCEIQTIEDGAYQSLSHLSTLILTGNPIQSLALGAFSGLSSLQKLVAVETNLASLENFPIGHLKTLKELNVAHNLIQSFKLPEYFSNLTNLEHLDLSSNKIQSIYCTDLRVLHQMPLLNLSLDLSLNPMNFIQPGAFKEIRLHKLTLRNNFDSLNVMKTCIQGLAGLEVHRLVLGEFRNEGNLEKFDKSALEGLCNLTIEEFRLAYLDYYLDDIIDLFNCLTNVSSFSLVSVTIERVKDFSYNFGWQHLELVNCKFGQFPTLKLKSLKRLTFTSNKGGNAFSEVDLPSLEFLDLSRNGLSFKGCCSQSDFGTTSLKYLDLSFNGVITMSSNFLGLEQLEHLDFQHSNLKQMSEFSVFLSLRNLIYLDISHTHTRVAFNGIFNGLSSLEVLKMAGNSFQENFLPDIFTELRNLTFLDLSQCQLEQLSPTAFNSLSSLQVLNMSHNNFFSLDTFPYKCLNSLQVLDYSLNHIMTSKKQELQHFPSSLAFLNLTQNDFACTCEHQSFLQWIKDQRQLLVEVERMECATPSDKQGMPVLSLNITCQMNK
T6 sequence (Q9Y6Y9 19-160, chain 2 of 2): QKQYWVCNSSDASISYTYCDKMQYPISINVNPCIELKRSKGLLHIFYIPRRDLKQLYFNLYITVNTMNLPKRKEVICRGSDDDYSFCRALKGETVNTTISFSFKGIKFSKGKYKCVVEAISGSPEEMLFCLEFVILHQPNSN

human TLR4/MD-2 complex [5] = target: T6, human TLR4/MD-2 complex; assay: SPR; S100 proteins injected (100 nM, or a range of concentrations; 30 ul/min) over human TLR4/MD2 immobilised by amine coupling (~3,000 RU); HBS-P pH 7.4 with 1 mM Ca2+ and 10 uM Zn2+; fit to a 1:1 model with mass transfer; half-maximal binding from responses at late association (apparent); conditions: both partners purified

Molecule | inhibition of S100A9 interaction with immobilised Q compound by competitor in solution (human S100A9) | Kd (hS100A9) | inhibition of hS100A9 binding to immobilised hTLR4/MD2 ([1]; competitor 200 nM) | inhibition of hS100A9 binding to immobilised hTLR4/MD2 ([1]; competitor 400 nM) | blocking of S100A9 interaction with immobilised TLR4 by competitor in solution ([1]; injected together with S100A9) | inhibition of S100A9 interaction with immobilised RAGE by competitor in solution [2] | Kd [3] | Kd (human TLR4/MD-2 complex [4]) | Kd (human TLR4/MD-2 complex [5])
sTLR4/MD2: recombinant human TLR4/MD-2 complex in solution | inhibit | 9.2 nM | 55% | 78% | efficiently block | inhibit | – | – | –
human S100A9 (natural protein, UniProt P06702 1-114, looked up, S100A9, human; called homodimeric; also called hS100A9; homodimeric S100A9; source: either produced recombinantly in Escherichia coli or purified from granulocytes) MTCKMSQLERNIETIINTFHQYSVKLGHPDTLNQGEFKELVRKDLQNFLKKENKNEKVIEHIMEDLDTNADKQLSFEEFIMLMARLTWASHEKMHEGDEGPGHHHKPGLGEGTP | – | – | – | – | – | – | 38 nM | 9.2 nM | 2.1 nM
human S100A8/A9 heterodimer (complex, S100A8, human; S100A9, human; also called hS100A8/9; S100A8/A9 complex; source: either produced recombinantly in Escherichia coli or purified from granulocytes) chain 1: MLTELEKALNSIIDVYHKYSLIKGNFHAVYRDDLKKLLETECPQYIRKKGADVWFKELDINTDGAVNFQEFLILVIKMGVAAHKKSHEESHKE chain 2: MTCKMSQLERNIETIINTFHQYSVKLGHPDTLNQGEFKELVRKDLQNFLKKENKNEKVIEHIMEDLDTNADKQLSFEEFIMLMARLTWASHEKMHEGDEGPGHHHKPGLGEGTP | – | – | – | – | – | – | 9.4 nM | – | 3.8 nM
